In article PMC10183829, “Shuffled ATG8 interacting motifs form an ancestral bridge between UFMylation and autophagy” (The EMBO Journal, 2023):
No end group written: not given here. TAMRA = 5(6)-carboxytetramethylrhodamine

B1: GABARAP (purified) (natural protein, human)
chain: FVYKEEHPFEKRRSEGEKIRKKYPDRVPVIVEKAPKARIGDLDKKKYLVPSDLTVGQFYFLIRKRIHLRAEDALFFFVNNVIPPTSATMGQLYQEHHEEDFFLYIAYSDESVYG
notes: GABARAP, Homo sapiens; 15N-labelled in the NMR titration; also called HIS6-3C-GABARAP; HIS6-GABARAP; source: E. coli Rosetta2 (DE3) pLysS, purified (HisTrap, ion exchange, SEC)
B2: HsC53^cAIM (purified, ITC) (natural protein)
chain: MEDHQHVPIDIQTSKLLDWLVDRRHCSLKWQSLVLTIREKINAAIQDMPESEEIAQLLSGSYIHYFHCLRILDLLKGTEASTKNIFGRYSSQRMKDWQEIIALYEKDNTYLVELSSLLVRNVNYEIPSLKKQIAKCQQLQQEYSRKEEECQAGAAEMREQFYHSCKQYGITGENVRGELLALVKDLPSQLAEIGAAAQQSLGEAIDVYQASVGFVCESPTEQVLPMLRFVQKRGNSTVYEWRTGTEPSVVERPHLEELPEQVAEDAWDGIDFGVEAVSEGTDSGISAEAAGWDGIIFPESDSKDPGGDGWDGIDDAVALQITVLEAGTQAPEGVARGPDALTLLEYTETRNQFLDELMELEIFLAQRAVELSEEADVLSVSQFQLAPAILQGQTKEKMVTMVSVLEDLIGKLTSLQLQHLFMILASPRYVDRVTEFLQQKLKQSQLLALKKELMVQKQQEALEEQAALEPKLDLLLEKTKELQKLIEADISKRYSGRPVNLMGTSL
notes: source: E. coli Rosetta2 (DE3) pLysS, purified

How the values were obtained:
Settings in all cases: both partners purified
AtUFM1 (purified) = target: T1, AtUFM1 (purified) (Arabidopsis thaliana); experiment: fluorescence polarisation; fluorescence anisotropy; ATG8A or AtUFM1 (250 nM-320 μM) added to 50 nM TAMRA-labeled peptide, 10 min at 4°C
T1 construct: UFM1, Arabidopsis thaliana; 15N-labelled or unlabelled in NMR; also called HIS6-3C-AtUFM1; HIS6-AtUFM1; source: E. coli Rosetta2 (DE3) pLysS, purified (HisTrap, ion exchange, SEC)

ATG8A (purified) = target: T2, ATG8A (purified) (Arabidopsis thaliana, UniProt Q8LEM4 1-117); experiment: as above
T2 construct: ATG8A, Arabidopsis thaliana; 3C site after the His6 tag; 15N-labelled or unlabelled in NMR; also called HIS6-3C-ATG8A; source: E. coli Rosetta2 (DE3) pLysS, purified (HisTrap, ion exchange, SEC)
T2 sequence (looked up): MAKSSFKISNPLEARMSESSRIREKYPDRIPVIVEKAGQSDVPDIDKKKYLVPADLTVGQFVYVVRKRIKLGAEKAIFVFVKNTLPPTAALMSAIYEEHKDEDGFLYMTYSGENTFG

[1] = target: B2; experiment: ITC
GABARAP (purified) = target: B1; experiment: ITC
mCh-HsC53 = target: T3, mCh-HsC53 (human, UniProt Q96JB5 1-506); experiment: microscopy-based on-bead protein-protein interaction assay
T3 construct: also called mCherry-tagged human C53; not shown: mCherry, N-terminal, kept
T3 sequence (looked up): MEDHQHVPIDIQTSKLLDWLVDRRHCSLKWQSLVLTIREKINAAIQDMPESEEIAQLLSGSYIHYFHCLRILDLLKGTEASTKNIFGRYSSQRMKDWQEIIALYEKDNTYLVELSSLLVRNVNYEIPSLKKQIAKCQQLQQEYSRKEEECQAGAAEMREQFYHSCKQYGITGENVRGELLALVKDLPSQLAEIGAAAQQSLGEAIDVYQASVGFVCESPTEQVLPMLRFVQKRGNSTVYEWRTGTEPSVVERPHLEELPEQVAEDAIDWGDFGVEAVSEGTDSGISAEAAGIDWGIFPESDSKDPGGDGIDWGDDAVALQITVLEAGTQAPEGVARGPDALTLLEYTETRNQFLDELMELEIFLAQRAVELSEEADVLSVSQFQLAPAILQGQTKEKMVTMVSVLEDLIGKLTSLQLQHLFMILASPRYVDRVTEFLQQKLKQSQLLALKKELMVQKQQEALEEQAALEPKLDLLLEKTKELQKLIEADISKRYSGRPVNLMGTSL

cAIM wt peptide = experiment: as above
HsUFM1 (purified) = target: T4, HsUFM1 (purified) (human, UniProt P61960 1-85); experiment: native MS; HsUFM1 (5 μM) with peptide (25 μM); ammonium acetate, nanoelectrospray, Synapt G2Si
T4 construct: UFM1, Homo sapiens; 15N-labelled in the NMR titration; also called human UFM1; source: E. coli Rosetta2 (DE3) pLysS, purified (HisTrap, ion exchange, SEC)
T4 sequence (P61960 whole entry): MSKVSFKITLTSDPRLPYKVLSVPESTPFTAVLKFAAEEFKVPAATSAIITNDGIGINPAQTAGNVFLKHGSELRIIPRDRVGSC

{TAMRA}-AADSIDWDITVETPEIDWDVSMVEEV [sAIM1,2 peptide (AtC53 IDR-derived peptide that covers both sAIM1 and sAIM2)] showed a Kd (AtUFM1 (purified)) of 148 µM and a Kd (ATG8A (purified)) of 26.5 µM.

Work on B1 yielded a Kd [1] of 11.2 µM.

For B2, the “fold increase in affinity against the C53 wild type” value (GABARAP (purified)) was 1.8 fold.

B3: GST-GABARAP (natural protein, human, UniProt O95166 1-117, looked up)
chain: MKFVYKEEHPFEKRRSEGEKIRKKYPDRVPVIVEKAPKARIGDLDKKKYLVPSDLTVGQFYFLIRKRIHLRAEDALFFFVNNVIPPTSATMGQLYQEHHEEDFFLYIAYSDESVYGL
notes: also called human ATG8 isoform GABARAP; human ATG8; not shown: GST, N-terminal, kept
B3: binds (mCh-HsC53).

B4: GST-ATG8A (natural protein)
chain: MAKSSFKISNPLEARMSESSRIREKYPDRIPVIVEKAGQSDVPDIDKKKYLVPADLTVGQFVYVVRKRIKLGAEKAIFVFVKNTLPPTAALMSAIYEEHKDEDGFLYMTYSGENTFG
notes: also called Arabidopsis ATG8A; not shown: GST, N-terminal, kept
B4: binds (cAIM wt peptide).

B5: AtUBA5 LIR peptide (peptide)
peptide: GPLHDDNEWNISVVDD
notes: LIR/UFIM peptide of UBA5; also called AtUBA5 LIR/UFIM peptide; UBA5 LIR/UFIM; source: synthetic peptide (synthetized in house)
B5 was tested, and the “stoichiometry N” value (HsUFM1 (purified)) was 1.
